This note sets out measurements from the supplement of paper PMC10567573.

± gives the standard deviation.

This data set is described as follows: protein stability index of a GFP-peptide fusion (GPS, HEK-293T) (PSI 1-6); higher = more stable. The note with it: c terminus: a fixed tail appended.
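Further: 24-mer peptide tiles fused after GFP, lentivirally expressed, FACS-sorted into six equal bins by GFP/DsRed ratio, decoded by Illumina sequencing, PSI is the read-weighted mean bin number.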

As for PSTVGAEAQEEFLRVLGSMCQRLR [DFFB], the protein stability index is 2.28 ± 0.34 (treatment: DMSO) and 2.2 ± 0.32 (treatment: MLN4924 1 uM, 8 h).

Take PTYGRSFTLASSSDTRVGAPATGS [CHIT1]: the protein stability index amounted to 4.29 ± 0.25 (treatment: DMSO) and 4.12 ± 0.36 (treatment: MLN4924 1 uM, 8 h).

In the case of PVKSYDYLLKFLLVGDSDVGKGEI [RAB40C], the protein stability index runs as follows: (treatment: DMSO) 2.06 ± 0.19; (treatment: MLN4924 1 uM, 8 h) 2 ± 0.24.

PVKTLPFSPSQFLNFWNKQDTLEL [MYBL2]: the protein stability index came to 2.36 ± 0.37 (treatment: DMSO) and 2.43 ± 0.31 (treatment: MLN4924 1 uM, 8 h).

For PYKCPECGKSFSRSSHLVIHERTH [ZNF263], the protein stability index (treatment: DMSO) turned out to be 3.23 ± 0.54 and the protein stability index (treatment: MLN4924 1 uM, 8 h) worked out at 3.28 ± 0.64.

As for QAGAARLEEELRQLKEEMARHLRE [PRPH], the protein stability index by setting is: (treatment: DMSO) 4.15 ± 0.37; (treatment: MLN4924 1 uM, 8 h) 4.63 ± 0.3.

Consider QALQKEKETLAVNYEKEEEFLTNE [CCDC6], for which the protein stability index by setting is: (treatment: DMSO) 5.39 ± 0.15; (treatment: MLN4924 1 uM, 8 h) 5.3 ± 0.24.

QAPISAPEYTYGISNIDTTIEGTS [MFF]: the protein stability index is, setting by setting: (treatment: DMSO) 4.67 ± 0.42; (treatment: MLN4924 1 uM, 8 h) 4.55 ± 0.21.

Regarding QAQMIHPKPADFRNPGPGRHRLIT [INTS4], the protein stability index stood at 3.94 ± 0.26 (treatment: DMSO) and 3.92 ± 0.24 (treatment: MLN4924 1 uM, 8 h).

QASPYHPGSCGAGAPSPGSSDVST [ELF3]: the protein stability index reads like this: (treatment: DMSO) 4.57 ± 0.16; (treatment: MLN4924 1 uM, 8 h) 4.52 ± 0.43.

Sequence QEWSFLPSITRKRRYVASVSLHDR [KLHL12] gave a protein stability index (treatment: DMSO) of 2.41 ± 0.11 and a protein stability index (treatment: MLN4924 1 uM, 8 h) of 2.51 ± 0.33.

Take QFANLVLHQTVERIHVGKKYGDIP [LSM1]: the protein stability index (treatment: DMSO) was determined as 2.13 ± 0.22 and the protein stability index (treatment: MLN4924 1 uM, 8 h) came to 2.09 ± 0.23.

Consider QGHPQTGCECEDGPDGQEMDPPNP [GAGE1], for which the protein stability index (treatment: DMSO) is 5.39 ± 0.33 and the protein stability index (treatment: MLN4924 1 uM, 8 h) was found to be 5.67 ± 0.14.

Take QHYQQYMQQLYQVQLAQQQAALQK [ACBD3]: the protein stability index came out at 2.23 ± 0.23 (treatment: DMSO) and 2.21 ± 0.23 (treatment: MLN4924 1 uM, 8 h).

Consider QKEQQERLREAAALGDIREVQKLV [ANKRD40], for which the protein stability index runs as follows: (treatment: DMSO) 4.67 ± 0.25; (treatment: MLN4924 1 uM, 8 h) 4.74 ± 0.25.

Take QKILCSKSENARLVVQIDNAKLAA [KRT33B]: the protein stability index is 3.21 ± 0.27 (treatment: DMSO) and 3.33 ± 0.26 (treatment: MLN4924 1 uM, 8 h).

Consider QKKIESYLHNHFIGEGMTKYDYLM [TENT5D], for which the protein stability index by setting is: (treatment: DMSO) 2.13 ± 0.45; (treatment: MLN4924 1 uM, 8 h) 2.18 ± 0.27.

QKRETLSPLCLIPMVTSPREEQQL [KCTD13]: the protein stability index came to 3.98 ± 0.18 (treatment: DMSO) and 4.08 ± 0.15 (treatment: MLN4924 1 uM, 8 h).

As for QLGLGRGASTFKEEPQTVPEARSR [JUNB], the protein stability index turned out to be 5.04 ± 0.1 (treatment: DMSO) and 5.22 ± 0.26 (treatment: MLN4924 1 uM, 8 h).

In the case of QLLWREFFYTAATNNPRFDKMEGN [CRY1], the protein stability index was determined as 2.02 ± 0.23 (treatment: DMSO) and 2 ± 0.38 (treatment: MLN4924 1 uM, 8 h).

With QLQPTFTPMRVALAGTFHYYSCER [NSDHL], the protein stability index came to 2.18 ± 0.24 (treatment: DMSO) and 2.26 ± 0.044 (treatment: MLN4924 1 uM, 8 h).

As for QMNLLQKYSLLKLTALLEKYTPSN [DLC1], the protein stability index runs as follows: (treatment: DMSO) 2.48 ± 0.55; (treatment: MLN4924 1 uM, 8 h) 2.41 ± 0.49.

Consider QNMMNHCNLWDSHHPEVPQRILRI [HDAC6], for which the protein stability index runs as follows: (treatment: DMSO) 2.2 ± 0.24; (treatment: MLN4924 1 uM, 8 h) 2.15 ± 0.083.

Sequence QQKLVIDTVTEVTARMEMLIEELY [CBY2] registered a protein stability index (treatment: DMSO) of 2.55 ± 0.26 and a protein stability index (treatment: MLN4924 1 uM, 8 h) of 2.7 ± 0.42.

Turning to QRLLNTPRRKKLKSTSKYIYQTLF [GMCL1], the protein stability index is 2.08 ± 0.73 (treatment: DMSO) and 1.75 ± 0.46 (treatment: MLN4924 1 uM, 8 h).

Turning to QSRGVPAVSESYSAPGACEEPTER [FBXO34], the protein stability index is, setting by setting: (treatment: DMSO) 5.49 ± 0.18; (treatment: MLN4924 1 uM, 8 h) 5.49 ± 0.18.

As to QSSFNSLQRVPSYDSFDSEDYPAA [ETS1], the protein stability index by setting is: (treatment: DMSO) 4.92 ± 0.28; (treatment: MLN4924 1 uM, 8 h) 4.93 ± 0.21.

For QSSLLETLYRNRSNLETIFRIIDS [PPEF2], the protein stability index runs as follows: (treatment: DMSO) 2.17 ± 0.25; (treatment: MLN4924 1 uM, 8 h) 2.15 ± 0.1.

Take QSYKDLCERHEKGVLHKHQRALHK [SNX8]: the protein stability index amounted to 3.95 ± 0.2 (treatment: DMSO) and 3.92 ± 0.37 (treatment: MLN4924 1 uM, 8 h).

Take QTDHIKGIRQITSDDFCTFQMVLE [GFOD1]: the protein stability index runs as follows: (treatment: DMSO) 2.69 ± 0.28; (treatment: MLN4924 1 uM, 8 h) 2.8 ± 0.25.

For QTLLGTAKMLLHEGQHPAQLRSDV [PYCR3], the protein stability index runs as follows: (treatment: DMSO) 3.28 ± 0.094; (treatment: MLN4924 1 uM, 8 h) 3.16 ± 0.39.

Turning to QTPQVNINPFTPDSLLLHSSGQCR [WEE1], the protein stability index runs as follows: (treatment: DMSO) 3.6 ± 0.24; (treatment: MLN4924 1 uM, 8 h) 3.86 ± 0.34.

As for QTSSSTFGGGSTRGGSLLAGGGGF [KRT15], the protein stability index reads like this: (treatment: DMSO) 3.57 ± 0.17; (treatment: MLN4924 1 uM, 8 h) 3.7 ± 0.23.

Take QVKKTTTRWCHIVRDSDSLAESEF [PHTF1]: the protein stability index (treatment: DMSO) came out at 3.44 ± 0.36 and the protein stability index (treatment: MLN4924 1 uM, 8 h) stood at 3.67 ± 0.25.

As for QVLVKDFTFEGFSRLRFLNLGRMI [ZER1], the protein stability index by setting is: (treatment: DMSO) 2.07 ± 0.22; (treatment: MLN4924 1 uM, 8 h) 2.08 ± 0.23.

Consider QYSGMLDCARRILAREGVAAFYKG [SLC25A25], for which the protein stability index stood at 2.38 ± 0.34 (treatment: DMSO) and 2.23 ± 0.055 (treatment: MLN4924 1 uM, 8 h).
